The results in this text go back to PMC11700292, “Specific inhibition of fibroblast growth factor receptor 1 signaling by a DNA aptamer”.

In series [1] the target is FGFR1b extracellular domain-Fc (human) (UniProt P11362). The experiment in a line: BLI. To be noted: BLI (Octet K2, protein A sensor, FGFR-Fc 5 ug/mL), VZ23 31.25-500 nM in PBS (8.1 mM Na2HPO4, 1.5 mM NaH2PO4, 137 mM NaCl, 2.7 mM KCl as given for NMR) with or ….
Series [2] deals with T1, FGFR1c extracellular domain-Fc (human, UniProt P11362-1 22-376). As to the kind of experiment: BLI; PBS, no Mg2+; BLI (Octet K2, protein A sensor, FGFR-Fc 5 ug/mL), VZ23 31.25-500 nM in PBS (8.1 mM Na2HPO4, 1.5 mM NaH2PO4, 137 mM NaCl, 2.7 mM KCl as given for NMR) with or without 2 mM MgCl2; pH 7.3 (stated for CD); temperature not stated. Particulars: protein: recombinant; tags: IgG1 Fc fusion; antiparallel G-quadruplex-like fold. In general terms: Biolayer interferometry detects binding as a change in optical thickness at a sensor tip.

Series [3] addresses FGFR1c extracellular domain-Fc;FGF1 (human;human, UniProt P11362-1;P05230 22-376;16-155, |). The experiment in a line: BLI; preformed FGF1:FGFR1c complex; 250 nM each; BLI (Octet K2, protein A sensor, FGFR-Fc 5 ug/mL), VZ23 31.25-500 nM in PBS (8.1 mM Na2HPO4, 1.5 mM NaH2PO4, 137 mM NaCl, 2.7 mM KCl as given for NMR) with or without 2 mM MgCl2; pH 7.3 (stated for CD); temperature not stated. Particulars: protein: recombinant;commercial; tags: IgG1 Fc fusion;; antiparallel G-quadruplex-like fold.

In series [4] the target is T1, FGFR1c extracellular domain-Fc. As to the kind of experiment: BLI; 2 mM Mg2+; BLI (Octet K2, protein A sensor, FGFR-Fc 5 ug/mL), VZ23 31.25-500 nM in PBS (8.1 mM Na2HPO4, 1.5 mM NaH2PO4, 137 mM NaCl, 2.7 mM KCl as given for NMR) with or without 2 mM MgCl2; pH 7.3 (stated for CD); temperature not stated. To be noted: protein: recombinant; tags: IgG1 Fc fusion; antiparallel G-quadruplex-like fold.

Series [5] has as its target FGFR2c extracellular domain-Fc (human, UniProt P21802 22-377). The experiment in a line: BLI; BLI (Octet K2, protein A sensor, FGFR-Fc 5 ug/mL), VZ23 31.25-500 nM in PBS (8.1 mM Na2HPO4, 1.5 mM NaH2PO4, 137 mM NaCl, 2.7 mM KCl as given for NMR) with or without 2 mM MgCl2; pH 7.3 (stated for CD); temperature not stated. Particulars: protein: recombinant; tags: IgG1 Fc fusion; antiparallel G-quadruplex-like fold.

Series [6] addresses T2, FGFR4 extracellular domain-Fc (human, UniProt P22455 22-369).
T2 sequence: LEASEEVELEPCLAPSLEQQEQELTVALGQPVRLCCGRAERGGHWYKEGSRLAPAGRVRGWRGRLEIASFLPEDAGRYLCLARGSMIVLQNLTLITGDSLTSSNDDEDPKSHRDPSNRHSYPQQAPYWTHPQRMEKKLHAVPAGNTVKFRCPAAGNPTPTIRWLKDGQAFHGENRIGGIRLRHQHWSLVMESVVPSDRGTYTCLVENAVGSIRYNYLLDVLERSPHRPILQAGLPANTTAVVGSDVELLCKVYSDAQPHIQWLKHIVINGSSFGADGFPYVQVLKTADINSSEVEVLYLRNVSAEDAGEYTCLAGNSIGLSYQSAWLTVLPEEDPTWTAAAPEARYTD
The description is as above. Particulars: protein: recombinant; tags: IgG1 Fc fusion; antiparallel G-quadruplex-like fold.

In series [7] the target is FGFR3b extracellular domain-Fc (human, UniProt P22607-2 23-377). The series is described as above. To be noted: protein: recombinant; tags: IgG1 Fc fusion; antiparallel G-quadruplex-like fold.
Series [8] deals with FGFR2b extracellular domain-Fc (human, UniProt P21802-3 22-378). The description is as above. Particulars: protein: recombinant; tags: IgG1 Fc fusion; antiparallel G-quadruplex-like fold.
Series [9] has as its target FGFR3c extracellular domain-Fc (human, UniProt P22607 23-375). The series is described as above. To be noted: protein: recombinant; tags: IgG1 Fc fusion; antiparallel G-quadruplex-like fold.

Sequence of FGFR1b extracellular domain-Fc (human) (P11362 whole entry, the tested form may be a part): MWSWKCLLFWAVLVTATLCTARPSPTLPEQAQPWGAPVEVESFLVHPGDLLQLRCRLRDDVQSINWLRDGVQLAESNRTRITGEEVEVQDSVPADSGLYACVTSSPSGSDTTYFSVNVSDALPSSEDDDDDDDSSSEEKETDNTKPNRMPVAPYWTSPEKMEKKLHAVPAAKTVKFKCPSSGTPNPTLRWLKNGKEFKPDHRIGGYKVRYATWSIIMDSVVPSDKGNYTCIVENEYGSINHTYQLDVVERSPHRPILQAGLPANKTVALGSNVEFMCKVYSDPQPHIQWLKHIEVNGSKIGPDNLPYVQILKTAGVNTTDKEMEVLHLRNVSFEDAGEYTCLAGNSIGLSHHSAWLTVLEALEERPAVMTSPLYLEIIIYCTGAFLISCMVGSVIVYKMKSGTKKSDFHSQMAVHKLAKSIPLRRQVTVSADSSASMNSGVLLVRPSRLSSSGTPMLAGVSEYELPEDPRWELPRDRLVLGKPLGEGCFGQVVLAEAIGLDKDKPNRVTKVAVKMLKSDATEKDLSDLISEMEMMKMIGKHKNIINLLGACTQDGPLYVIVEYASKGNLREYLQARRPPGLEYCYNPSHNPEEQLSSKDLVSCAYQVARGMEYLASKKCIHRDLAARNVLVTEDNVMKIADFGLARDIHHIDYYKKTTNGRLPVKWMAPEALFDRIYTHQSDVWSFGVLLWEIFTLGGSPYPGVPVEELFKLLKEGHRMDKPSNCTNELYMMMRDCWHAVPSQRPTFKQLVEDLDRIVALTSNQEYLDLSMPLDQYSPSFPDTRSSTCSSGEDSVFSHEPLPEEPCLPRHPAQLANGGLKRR
T1 sequence (P11362 22-376): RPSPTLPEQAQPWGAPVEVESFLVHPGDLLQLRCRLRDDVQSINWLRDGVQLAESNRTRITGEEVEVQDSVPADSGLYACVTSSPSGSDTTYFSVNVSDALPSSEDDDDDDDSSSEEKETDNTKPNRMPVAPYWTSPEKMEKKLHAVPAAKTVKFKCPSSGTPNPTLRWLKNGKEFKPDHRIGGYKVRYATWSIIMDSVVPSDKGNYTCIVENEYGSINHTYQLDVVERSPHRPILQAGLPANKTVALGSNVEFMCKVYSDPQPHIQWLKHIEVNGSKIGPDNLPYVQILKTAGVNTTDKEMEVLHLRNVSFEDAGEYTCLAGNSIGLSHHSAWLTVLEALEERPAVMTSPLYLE
Sequence of FGFR3c extracellular domain-Fc (P22607 23-375): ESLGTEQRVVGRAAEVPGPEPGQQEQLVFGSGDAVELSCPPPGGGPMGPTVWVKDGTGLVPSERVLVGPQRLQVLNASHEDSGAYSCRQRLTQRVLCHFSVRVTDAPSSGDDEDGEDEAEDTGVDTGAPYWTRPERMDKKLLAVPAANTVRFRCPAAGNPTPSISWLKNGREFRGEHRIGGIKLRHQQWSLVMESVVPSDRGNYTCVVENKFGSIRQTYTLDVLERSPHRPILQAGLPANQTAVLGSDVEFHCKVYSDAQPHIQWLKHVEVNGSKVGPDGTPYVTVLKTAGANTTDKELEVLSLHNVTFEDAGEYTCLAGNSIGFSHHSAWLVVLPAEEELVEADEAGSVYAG
Sequence of FGFR2c extracellular domain-Fc (P21802 22-377): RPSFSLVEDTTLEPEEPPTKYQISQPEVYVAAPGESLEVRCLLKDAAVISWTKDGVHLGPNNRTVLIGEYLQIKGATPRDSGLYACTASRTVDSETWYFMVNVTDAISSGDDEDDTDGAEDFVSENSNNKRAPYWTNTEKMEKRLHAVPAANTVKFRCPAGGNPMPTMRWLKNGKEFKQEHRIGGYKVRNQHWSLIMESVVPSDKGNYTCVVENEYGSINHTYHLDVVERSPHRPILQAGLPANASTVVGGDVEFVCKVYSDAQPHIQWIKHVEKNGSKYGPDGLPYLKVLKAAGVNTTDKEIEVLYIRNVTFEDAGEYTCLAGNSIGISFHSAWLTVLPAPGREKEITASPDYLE
Sequence of FGFR2b extracellular domain-Fc (P21802 other isoform, or with tags, fused parts or gaps): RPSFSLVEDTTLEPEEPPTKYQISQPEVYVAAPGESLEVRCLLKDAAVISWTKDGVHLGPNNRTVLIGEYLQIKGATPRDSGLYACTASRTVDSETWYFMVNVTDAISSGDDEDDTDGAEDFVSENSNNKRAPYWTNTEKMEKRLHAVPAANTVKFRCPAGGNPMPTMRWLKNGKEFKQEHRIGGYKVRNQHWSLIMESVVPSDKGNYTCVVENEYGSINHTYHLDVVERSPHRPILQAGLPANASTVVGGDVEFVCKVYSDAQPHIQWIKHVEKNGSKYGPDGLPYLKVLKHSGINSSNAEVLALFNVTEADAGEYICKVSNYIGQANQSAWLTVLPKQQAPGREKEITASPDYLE
Sequence of FGFR1c extracellular domain-Fc;FGF1 (P11362 22-376, chain 1 of 2): as the sequence (P11362 22-376) above
Sequence of FGFR1c extracellular domain-Fc;FGF1 (P05230 16-155, chain 2 of 2): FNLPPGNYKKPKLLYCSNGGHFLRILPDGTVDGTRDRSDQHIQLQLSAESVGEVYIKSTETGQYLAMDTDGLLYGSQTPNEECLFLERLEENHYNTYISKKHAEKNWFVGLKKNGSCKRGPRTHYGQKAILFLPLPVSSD
Sequence of FGFR3b extracellular domain-Fc (P22607 other isoform, or with tags, fused parts or gaps): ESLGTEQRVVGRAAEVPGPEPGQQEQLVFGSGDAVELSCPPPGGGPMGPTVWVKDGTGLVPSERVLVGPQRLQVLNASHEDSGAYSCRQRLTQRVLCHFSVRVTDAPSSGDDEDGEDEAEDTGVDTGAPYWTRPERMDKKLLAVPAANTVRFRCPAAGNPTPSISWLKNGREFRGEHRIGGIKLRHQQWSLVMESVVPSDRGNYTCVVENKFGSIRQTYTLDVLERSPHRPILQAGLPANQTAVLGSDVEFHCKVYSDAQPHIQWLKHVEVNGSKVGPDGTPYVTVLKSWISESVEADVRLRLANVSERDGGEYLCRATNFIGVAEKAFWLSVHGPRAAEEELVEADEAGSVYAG

A word on the Kd: it is the equilibrium constant for the complex coming apart. Take “GGGATACAGGGCTTTGTCTATGGTGTGGATGGCGGATACC [VZ23]”: the Kd is 29.8 nM in [1] (2 mM Mg2+) and 54.6 nM in series [1] (PBS, no Mg2+).

On to GGGATACAGGGCTTTGTCTATGGTGTGGATGGCGGATACC (structured_DNA) [VZ23], for which the Kd in series [2] was 162 ± 48.7 nM; in series [4] it was 65.4 ± 5.5 nM. The binding result is “binds” in [3]; “no binding” in series [5]; “no binding” in series [6]; “no binding” in series [7]; “no binding” in series [8]; “no binding” in [9].
